Where two headings read alike, the source gives them in different places.
T1: human TfR apical domain (human)
T1 chain: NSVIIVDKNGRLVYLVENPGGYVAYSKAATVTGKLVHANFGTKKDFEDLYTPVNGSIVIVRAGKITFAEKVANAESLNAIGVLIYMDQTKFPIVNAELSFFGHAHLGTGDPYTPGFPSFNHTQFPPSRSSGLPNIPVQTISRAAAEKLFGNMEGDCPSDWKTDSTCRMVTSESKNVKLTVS


Columns and labels:
Assay in all cases: SPR
human TfR apical domain [1] = biological target: T1, human TfR apical domain
human TfR apical domain [2] = biological target: T1, human TfR apical domain
human TfR apical domain [3] = biological target: T1, human TfR apical domain

Row | Binder | Kd (human TfR apical domain [1]) [nM] | Kd (human TfR apical domain [2]) [nM] | Kd (human TfR apical domain [3]) [nM]
1 | 42.2.19 (protein) APELLGGPSVFLFPPKPKDTLMISRTPEVTCVVVDVSHEDPEVKFNWYVDGVEVHNAKTKPREEQYNSTYRVVSVLTVLHQDWLNGKEYKCKVSNKALPAPIEKTISKAKGQPREPQVYTLPPSRDELTKNQVSLTCLVKGFYPSDIAVEWFYDDSKLTNYKTTPPVLDSDGSFFLYSKLTVDKSRWQPRGLFACEVMHEALHNHYTYKLLGESPGK |  | 80 | 
2 | TV35.d1.9 (protein) PCPAPEAAGGPSVFLFPPKPKDTLMISRTPEVTCVVVDVSHEDPEVKFNWYVDGVEVHNAKTKPREEQYNSTYRVVSVLTVLHQDWLNGKEYKCKVSNKALGAPIEKTISKAKGQPREPQVYTLPPSRDELTKNQVSLWCLVKGFYPSDIAVEWESYGTEWTNYKTTPPVLDSDGSFFLYSKLTVTKSEWQQGFVFSCSVMHEALHNHYTQKSLSLSPGK | 8000 |  | 8400
3 | TV35.d1.10 (protein) PCPAPEAAGGPSVFLFPPKPKDTLMISRTPEVTCVVVDVSHEDPEVKFNWYVDGVEVHNAKTKPREEQYNSTYRVVSVLTVLHQDWLNGKEYKCKVSNKALGAPIEKTISKAKGQPREPQVYTLPPSRDELTKNQVSLWCLVKGFYPSDIAVEWESYGTEWVNYKTTPPVLDSDGSFFLYSKLTVTKSEWQQGFVFSCSVMHEALHNHYTQKSLSLSPGK | 2500 |  | 2500

Continued, values first:

Row | Kd (human TfR apical domain [1]) [nM] | Kd (human TfR apical domain [2]) [nM] | Kd (human TfR apical domain [3]) [nM] | Binder
4 | 650 | 650 |  | 6.5.11.5.42.2 (TV42.2) (protein) APELLGGPSVFLFPPKPKDTLMISRTPEVTCVVVDVSHEDPEVKFNWYVDGVEVHNAKTKPREEQYNSTYRVVSVLTVLHQDWLNGKEYKCKVSNKALPAPIEKTISKAKGQPREPQVYTLPPSRDELTKNQVSLTCLVKGFYPSDIAVEWFSDGSKETNYKTTPPVLDSDGSFFLYSKLTVDKSRWQQGNLFACEVMHEALHNHYTYKLLSLSPGK
5 | 450 |  |  | 42.8.143 (protein) APELLGGPSVFLFPPKPKDTLMISRTPEVTCVVVDVSHEDPEVKFNWYVDGVEVHNAKTKPREEQYNSTYRVVSVLTVLHQDWLNGKEYKCKVSNKALPAPIEKTISKAKGQPREPQVYTLPPSRDELTKNQVSLTCLVKGFYPSDIAVEWFYGDSKLTNYKTTPPVLDSDGSFFLYSKLTVDKSRWQQGNLFACEVMHEALHNHYTYKLLSLSPGK
6 | 100 |  |  | CH3C.35.23.2 (protein) PCPAPELLGGPSVFLFPPKPKDTLMISRTPEVTCVVVDVSHEDPEVKFNWYVDGVEVHNAKTKPREEQYNSTYRVVSVLTVLHQDWLNGKEYKCKVSNKALPAPIEKTISKAKGQPREPQVYTLPPSRDELTKNQVSLWCLVKGFYPSDIAVEWESYGTEWANYKTTPPVLDSDGSFFLYSKLTVTKEEWQQGFVFSCSVMHEALHNHYTQKSLSLSPGK
7 | 620 |  |  | CH3C.35.23.4 (protein) PCPAPELLGGPSVFLFPPKPKDTLMISRTPEVTCVVVDVSHEDPEVKFNWYVDGVEVHNAKTKPREEQYNSTYRVVSVLTVLHQDWLNGKEYKCKVSNKALPAPIEKTISKAKGQPREPQVYTLPPSRDELTKNQVSLWCLVKGFYPSDIAVEWESYGTEWSNYKTTPPVLDSDGSFFLYSKLTVSKEEWQQGFVFSCSVMHEALHNHYTQKSLSLSPGK
